ΔG, ΔH and Tm data for two proteins are collected here from US20120040900A1 (BRIGHAM AND WOMEN S HOSPITAL, published 2012).

Where only a bound is given, the exact number is not on record here.

First the molecules themselves.
B1: EE1234L (peptide)
coil peptide: LEIEAAFLEQENTALETEVAELEQEVQRLENIVSQYETRYGPLGGGK
notes: also called EE1234L (pI=3.7); acidic coil peptide
B2: RR1234L (peptide)
coil peptide: KGGGLEIRAAFLRRRNTALRTRVAELRQRVQRLRNIVSQYETRYGPL
notes: also called RR1234L (pI=12.4); basic coil peptide

Series [1] deals with the molecule itself. Description: homodimer, circular dichroism thermal denaturation; unit not given.
The nature of series [2]: homodimer, circular dichroism thermal denaturation; unit inferred.
Series [3] has as its target B2. Kind of series: heterodimer, circular dichroism thermal denaturation; unit inferred.

In series [1], B1 gave a ΔG of -6.2 and a ΔH of -45. Moreover, the Tm in series [2] came to 28 °C. Moreover, in series [3], the Tm is over 90 °C.
In series [1], B2 registered a ΔG of -9.4 and a ΔH of -66. Also, the Tm in series [2] was 44 °C.
